Results from the Immune Epitope Database (IEDB).

Legend:
HLA-A*03:01 [1] = test: IEDB peptide-MHC binding, purified MHC/direct/fluorescence; filed as Kd, often an IC50 or EC50 that approximates it; ≥ and ≤ were set here for values at or beyond the usual limits of such assays
HLA-B*44:02 = test: as above
HLA-A*02:01 [2] = test: as above
HLA-B*08:01 [3] = test: as above
HLA-A*01:01 = test: as above
HLA-B*40:01 = test: as above
HLA-B*27:05 = test: as above
HLA-B*46:01 = test: as above
HLA-A*31:01 [4] = test: as above
HLA-B*15:01 = test: as above
HLA-B*07:02 [5] = test: as above
HLA-A*69:01 = test: as above
HLA-B*58:01 = test: as above
HLA-A*26:01 = test: as above
HLA-A*24:02 [6] = test: as above
HLA-B*15:17 = test: as above; conditions: source organism: Yellow fever virus 17D
HLA-C*15:02 = test: as above; conditions: source organism: Yellow fever virus
HLA-A*03:01 [7] = test: IEDB peptide-MHC binding, purified MHC/competitive/fluorescence; ≥ and ≤ were set here for values at or beyond the usual limits of such assays; conditions: source organism: Zaire ebolavirus
HLA-A*24:02 [8] = test: as above; conditions: source organism: Zaire ebolavirus
HLA-A*31:01 [9] = test: IEDB peptide-MHC binding, purified MHC/competitive/fluorescence; filed as Kd, often an IC50 or EC50 that approximates it; ≥ and ≤ were set here for values at or beyond the usual limits of such assays; conditions: source organism: Influenza A virus H3N2
HLA-B*18:01 = test: IEDB peptide-MHC binding, purified MHC/direct/fluorescence; filed as Kd, often an IC50 or EC50 that approximates it; ≥ and ≤ were set here for values at or beyond the usual limits of such assays; conditions: source organism: Influenza A virus (A/goose/Guangxi/1097/2004(H5N1))
HLA-A*11:01 [10] = test: as above
HLA-A*24:03 = test: as above; conditions: source organism: Influenza A virus (A/goose/Guangxi/1097/2004(H5N1))
HLA-B*08:02 = test: as above; conditions: source organism: Influenza A virus(A/swine/Shandong/fNY/2003(H9N2))
HLA-A*03:01 [11] = test: IEDB peptide-MHC binding, purified MHC/competitive/fluorescence; filed as Kd, often an IC50 or EC50 that approximates it; ≥ and ≤ were set here for values at or beyond the usual limits of such assays; conditions: source organism: Vaccinia virus WR
HLA-B*08:01 [12] = test: as above
HLA-B*07:02 [13] = test: as above; conditions: source organism: Vaccinia virus WR
HLA-A*02:01 [14] = test: IEDB peptide-MHC binding, purified MHC/competitive/fluorescence; ≥ and ≤ were set here for values at or beyond the usual limits of such assays; conditions: source organism: Zaire ebolavirus
HLA-A*11:01 [15] = test: as above; conditions: source organism: Zaire ebolavirus
HLA-C*12:03 = test: IEDB peptide-MHC binding, purified MHC/direct/fluorescence; filed as Kd, often an IC50 or EC50 that approximates it; ≥ and ≤ were set here for values at or beyond the usual limits of such assays; conditions: source organism: Foot-and-mouth disease virus C1
[16] = source organism: Influenza A virus (A/Hong Kong/507/97(H5N1))
[17] = source organism: Influenza A virus (A/goose/Guangxi/1097/2004(H5N1))
[18] = source organism: Influenza A virus (A/swine/Bakum/5/95(H1N1))

KSCLPACVY
Kd (HLA-A*03:01 [1]; [16]): ≥ 20 µM
Kd (HLA-B*44:02; [16]): ≥ 20 µM
Kd (HLA-A*02:01 [2]; [16]): ≥ 20 µM
Kd (HLA-B*08:01 [3]; [16]): ≥ 20 µM
Kd (HLA-A*01:01; [16]): ≥ 20 µM
Kd (HLA-B*40:01; [16]): ≥ 20 µM
Kd (HLA-B*27:05; [16]): ≥ 20 µM
Kd (HLA-B*46:01; [16]): ≥ 20 µM
Kd (HLA-A*31:01 [4]; [16]): ≥ 20 µM
Kd (HLA-B*15:01; source organism: Influenza A virus (A/Puerto Rico/8/34/Mount Sinai(H1N1))): 0.482 µM
Kd (HLA-B*07:02 [5]; [16]): ≥ 20 µM
Kd (HLA-A*69:01; [16]): ≥ 20 µM
Kd (HLA-B*58:01; [16]): 0.211 µM
Kd (HLA-A*26:01; source organism: Influenza A virus(A/swine/Henan/8/2004(H9N2))): ≥ 20 µM
Kd (HLA-A*24:02 [6]; [16]): ≥ 20 µM

KTNDRKWCF
Kd (HLA-B*15:17): 0.0266 µM
Kd (HLA-C*15:02): 0.849 µM

KYLEGHGFR
IC50 (HLA-A*03:01 [7]): ≥ 195 µM
IC50 (HLA-A*24:02 [8]): 7.69 µM

KYTSGRQEK
Kd (HLA-A*31:01 [9]): 0.268 µM
Kd (HLA-A*03:01 [1]; [17]): ≥ 20 µM
Kd (HLA-B*44:02; [17]): ≥ 20 µM
Kd (HLA-A*02:01 [2]; [17]): ≥ 20 µM
Kd (HLA-B*08:01 [3]; [17]): ≥ 20 µM
Kd (HLA-B*18:01): ≥ 20 µM
Kd (HLA-A*01:01; [17]): ≥ 20 µM
Kd (HLA-A*11:01 [10]; [17]): ≥ 20 µM
Kd (HLA-B*40:01; [17]): ≥ 20 µM
Kd (HLA-A*24:03): ≥ 20 µM
Kd (HLA-B*27:05; [17]): ≥ 20 µM
Kd (HLA-B*46:01; [17]): ≥ 20 µM
Kd (HLA-B*08:02): ≥ 20 µM
Kd (HLA-B*15:01; [17]): ≥ 20 µM
Kd (HLA-B*07:02 [5]; [17]): ≥ 20 µM
Kd (HLA-A*69:01; [17]): ≥ 20 µM
Kd (HLA-B*58:01; [17]): ≥ 20 µM
Kd (HLA-A*26:01; source organism: Influenza A virus(A/swine/Shandong/fNY/2003(H9N2))): ≥ 20 µM
Kd (HLA-A*24:02 [6]; [17]): ≥ 20 µM

LSDLKKTIY
Kd (HLA-A*03:01 [11]): ≥ 20 µM
Kd (HLA-B*08:01 [12]; source organism: Vaccinia virus WR): ≥ 20 µM
Kd (HLA-B*07:02 [13]): ≥ 20 µM
Kd (HLA-A*01:01; source organism: Cowpox virus (Brighton Red)): 0.0035 µM

MMVIFRLMR
IC50 (HLA-A*03:01 [7]): 0.183 µM
IC50 (HLA-A*02:01 [14]): ≥ 5440 µM
IC50 (HLA-A*11:01 [15]): 0.0455 µM

MTAHITVPY
Kd (HLA-C*12:03): 0.045 µM

QLRENAEDM
Kd (HLA-B*08:01 [12]; source organism: Influenza A virus (A/swine/Hong Kong/81/1978(H3N2))): 5.3 µM

RGINDRNFW
Kd (HLA-A*03:01 [1]; [18]): ≥ 20 µM
Kd (HLA-A*02:01 [2]; [18]): ≥ 20 µM
Kd (HLA-B*08:01 [3]; [18]): ≥ 20 µM
Kd (HLA-A*01:01; [18]): ≥ 20 µM
Kd (HLA-A*11:01 [10]; [18]): ≥ 20 µM
Kd (HLA-B*40:01; [18]): ≥ 20 µM
Kd (HLA-B*27:05; [18]): ≥ 20 µM
Kd (HLA-B*46:01; [18]): ≥ 20 µM
Kd (HLA-A*31:01 [4]; [18]): ≥ 20 µM
Kd (HLA-B*15:01; [18]): ≥ 20 µM
Kd (HLA-B*07:02 [5]; [18]): ≥ 20 µM
Kd (HLA-A*69:01; [18]): ≥ 20 µM
Kd (HLA-B*58:01; source organism: Influenza A virus (A/swine/Bakum/1832/2000(H1N2))): 0.0415 µM
Kd (HLA-A*24:02 [6]; [18]): ≥ 20 µM

RLLNLSGVN
IC50 (HLA-A*03:01 [7]): 43.2 µM
IC50 (HLA-A*02:01 [14]): 21.9 µM
